Source: publication PMC9410896

T1: MucR1 (Sinorhizobium fredii CCBAU45436, UniProt C3M8K5 1-143, A8T;V56I)
T1 sequence: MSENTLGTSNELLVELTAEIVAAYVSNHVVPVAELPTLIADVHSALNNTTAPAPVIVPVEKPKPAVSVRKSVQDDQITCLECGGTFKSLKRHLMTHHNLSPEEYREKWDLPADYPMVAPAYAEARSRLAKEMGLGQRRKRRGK

B1: motif_b8 (dsDNA)
DNA 1: CAATTGTATTGATATATCCAT
DNA 2: ATGGATATATCAATACAATTG
B2: motif_a1 (dsDNA)
DNA 1: GTTGTTTAGGTATTTTTTGGGGAATTGAAT
DNA 2: ATTCAATTCCCCAAAAAATACCTAAACAAC
B3: motif_b3 (dsDNA)
DNA 1: ATGCTTCCAAGTTGTTTAGGT
DNA 2: ACCTAAACAACTTGGAAGCAT
B4: motif_b1(2) (dsDNA)
DNA 1: GGTATTTTTTGGGGAATTGAAT
DNA 2: ATTCAATTCCCCAAAAAATACC
B5: spacer S1 (primer name spacer2) (dsDNA)
DNA 1: GCCCAGTTCTACTCCATTTT
DNA 2: AAAATGGAGTAGAACTGGGC
B6: motif_b5 (dsDNA)
DNA 1: TTTAAATCACCTATTTATATT
DNA 2: AATATAAATAGGTGATTTAAA
B7: motif_b6 (dsDNA)
DNA 1: ATAGACAACGCAAAGTATTGA
DNA 2: TCAATACTTTGCGTTGTCTAT
B8: motif_b4 (dsDNA)
DNA 1: TTATATTGACCGACTGAGATA
DNA 2: TATCTCAGTCGGTCAATATAA
B9: spacer S2 (primer name spacer1) (dsDNA)
DNA 1: GCCCAGTTCTACTCCATTTTTAGTAGAAA
DNA 2: TTTCTACTAAAAATGGAGTAGAACTGGGC
B10: motif_b7 (dsDNA)
DNA 1: ATTGATATATCCATAGACAAC
DNA 2: GTTGTCTATGGATATATCAAT
B11: spacer S3 (dsDNA)
DNA 1: AATTATCGGGATCGGGGGATAATGACA
DNA 2: TGTCATTATCCCCCGATCCCGATAATT
B12: spacer S4 (dsDNA)
DNA 1: AAACATTGACTGTATATAATTTTA
DNA 2: TAAAATTATATACAGTCAATGTTT

Molecular target: T1, MucR1
Test: EMSA

Binding result, binds:
B1

Molecular target: T1, MucR1
Test: EMSA
Remark: another data set of the same source

Binding result, binds:
B2
B3
B4
B5
B6
B7
B8
B9
B10
B11
B12
